# Substitutions are numbered along the chain they refer to.
# B1: ISOP120AR5P1G8 (designed binder, not shown: small tags and cut ends)
# chain: LPAPKNLVVSRVTEDSARLSWHATFGDPFDSFLIQYQESEKVGEAIVLTVPGSERSYDLTGLKPGTEYTVSIYGVGRHYTVYDSNPLSAIFTT
# notes: FN3 domain (Centyrin); tested as E. coli lysate
# B2: ISOP120AR5P1D9 (designed binder, not shown: small tags and cut ends)
# chain: B1 chain with H22N, A23T, T24D, F25W, G26V, D27H, P28T
# notes: as for B1
# B3: ISOP120FR5P1A6 (designed binder, not shown: small tags and cut ends)
# chain: LPAPKNLVVSRVTEDSARLSWTAPDAAFDSFIIRYLEDISYGEAIVLTVPGSERSYDLTGLKPGTEYHVGIEGVKGGNVSFPLSAIFTT
# notes: as for B1
# B4: ISOP120ER5P1F4 (designed binder, not shown: small tags and cut ends)
# chain: B3 chain with I32V, L36I, I39T, S40V, Y41M, G70S, N78P, V79S, F81L
# notes: as for B1
# B5: ISOP120ER5P1H4 (designed binder, not shown: small tags and cut ends)
# chain: B3 chain with I32N, R34M, I39V, S40Q, Y41C, E72N, N78L, V79R
# notes: as for B1
# B6: ISOP120FR5P1H6 (designed binder, not shown: small tags and cut ends)
# chain: B3 chain with I32G, R34P, S40E, Y41V, T59A, E72Y, N78E, V79Q
# notes: as for B1
# B7: ISOP120HR5P1B5 (designed binder, not shown: small tags and cut ends)
# chain: B3 chain with L36I, D38E, I39G, S40Y, N78Y, V79Y, F81Y
# notes: as for B1
# B8: ISOP120ER5P1E5 (designed binder, not shown: small tags and cut ends)
# chain: B3 chain with I32R, R34S, I39V, S40Y, E72H, N78I, V79D
# notes: as for B1
# B9: ISOP120ER5P1E10 (designed binder, not shown: small tags and cut ends)
# chain: LPAPKNLVVSRVTEDSARLSWTAPDAAFDSFEIYYMEDFHSGEAIVLTVPGSERSYDLTGLKPGTEYWVTIYGVEGGTGSLPLSAIFTT
# notes: as for B1
# B10: ISOP120ER5P1B12 (designed binder, not shown: small tags and cut ends)
# chain: LPAPKNLVVSRVTEDSARLSWTAPDAAFDSFAIYYIEWTAYGEAIVLTVPGSERSYDLTGLKPGTEYVVRISGVKCGIVSFPLSAIFTT
# notes: as for B1
# B11: ISOP120ER5P1A7 (designed binder, not shown: small tags and cut ends)
# chain: LPAPKNLVVSRVTEDSARLSWTAPDAAFDSFNIGYYERIIPGEAIVLTVPGSERSYDLTGLKPGTEYSVLICGVKGGKGSIPLSAIFTT
# notes: as for B1
# B12: ISOP120FR5P1E9 (designed binder, not shown: small tags and cut ends)
# chain: LPAPKNLVVSRVTEDSARLSWTAPDAAFDSFIIYYPEYISNGEAIVLTVPGSERSYDLTGLKPGTEYHVTIGVKGGHSWPLSAIFTT
# notes: as for B1
# B13: ISOP120HR5P1E7 (designed binder, not shown: small tags and cut ends)
# chain: LPAPKNLVVSRVTEDSARLSWTAPDAAFDSFQIYYLEQLGYGEAIVLTVPGSERSYDLTGLKPGTEYLVTIYGVKVCEQSYPLSAIFTT
# notes: as for B1
# B14: ISOP120AR5P1B5 (designed binder, not shown: small tags and cut ends)
# chain: LPAPKNLVVSRVTEDYARLSWKYGEHIIWFDSFLIQYQESEKVGEAIVLTVPGSERSYDLTGLKPGTEYTVSIYGVKGQHDHDSNPLSAIFTT
# notes: as for B1
# Molecular target: unrelated Fc-fused recombinant protein (negative control)
# Test: ELISA, bacterial lysate on plate-bound antigen, luminescence
row,ELISA Fc Control (RLU),Binder
1,320,B1
2,320,B2
3,400,B3
4,320,B4
5,480,B5
6,320,B6
7,320,B7
8,240,B8
9,720,B9
10,720,B10
11,400,B11
12,320,B12
13,480,B13
14,400,B14

# Molecular target: T1, recombinant biotinylated human CD137 protein (Fc-fusion protein, R&D Systems 838-4B) (human, UniProt Q07011 24-186, biotinylated (site not stated))
# T1 construct: Bought Fc fusion; The ELISA used the same antigen as the panning; also called CD137-Fc; biotinylated CD137; not shown: Fc part of the bought fusion protein
# Test: as above
# Protocol: (§1) Streptavidin-coated Maxisorp plates (Nunc catalog 436110) were blocked for 1 h in Starting Block T20 (Pierce) and then coated with biotinylated CD137 (using same antigen as in panning) or negative controls (an unrelated Fc-fused recombinant protein and human serum albumin) for 1 h. Plates were rinsed with TBST and diluted lysate was applied to plates for 1 h. Following additional rinses, wells were treated with HRP-conjugated anti-Centyrin antibody (PAB25) for 1 h and then assayed with POD (Roche catalog 11582950001).
row,ELISA CD137-Fc (RLU),Binder
1,541000,B1
2,636000,B2
3,1.4e+06,B3
4,537000,B4
5,1.07e+06,B5
6,357000,B6
7,520000,B7
8,413000,B8
9,810000,B9
10,1.44e+06,B10
11,1.11e+06,B11
12,1.18e+06,B12
13,363000,B13
14,501000,B14

# Molecular target: T2, human serum albumin (human, UniProt P02768 25-609)
# T2 construct: Negative control antigen of the screening ELISA; also called HSA
# T2 sequence (P02768 25-609 limits assumed): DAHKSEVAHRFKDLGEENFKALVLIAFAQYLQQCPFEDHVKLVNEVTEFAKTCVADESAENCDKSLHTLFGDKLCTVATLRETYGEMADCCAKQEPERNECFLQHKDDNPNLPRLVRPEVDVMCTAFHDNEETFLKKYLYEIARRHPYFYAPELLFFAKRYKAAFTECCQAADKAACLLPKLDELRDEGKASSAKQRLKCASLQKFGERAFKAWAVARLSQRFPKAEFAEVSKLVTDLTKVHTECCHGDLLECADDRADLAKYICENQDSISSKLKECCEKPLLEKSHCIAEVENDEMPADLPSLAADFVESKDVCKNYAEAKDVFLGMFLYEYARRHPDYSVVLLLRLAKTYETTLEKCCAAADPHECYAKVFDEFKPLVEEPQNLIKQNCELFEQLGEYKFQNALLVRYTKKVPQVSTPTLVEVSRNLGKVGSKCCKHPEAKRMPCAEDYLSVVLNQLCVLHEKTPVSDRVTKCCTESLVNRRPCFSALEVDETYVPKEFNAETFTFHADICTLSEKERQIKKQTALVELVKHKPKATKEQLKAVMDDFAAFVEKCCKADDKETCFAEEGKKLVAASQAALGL
# Test: as above
# Protocol: as §1
row,ELISA HSA (RLU),Binder
1,320,B1
2,320,B2
3,320,B3
4,400,B4
5,560,B5
6,320,B6
7,240,B7
8,320,B8
9,400,B9
10,800,B10
11,400,B11
12,400,B12
13,480,B13
14,320,B14

# Reference: patent US20220259289A1 (Janssen / Centocor, published 2022)
